Reference: patent US20040241820A1

Molecular target: Savinase® (subtilisin 309) (UniProt P29600)
Assay: cell-based or functional assay

Sequence of UniProt P29600 (P29600 whole entry): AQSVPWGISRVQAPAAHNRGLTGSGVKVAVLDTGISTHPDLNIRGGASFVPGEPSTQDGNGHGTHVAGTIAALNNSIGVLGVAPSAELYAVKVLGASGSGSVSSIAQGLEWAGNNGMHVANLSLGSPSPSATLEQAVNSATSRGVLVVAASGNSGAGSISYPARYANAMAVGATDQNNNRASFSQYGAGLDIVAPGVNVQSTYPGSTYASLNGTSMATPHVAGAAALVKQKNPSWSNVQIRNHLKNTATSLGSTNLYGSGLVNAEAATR

trypsin inhibitor type IV-0 (Ovo-inhibitor), Sigma T-1886 (from UniProt P10184 69-517)
RA (%) (Residual Activity in the Ovo-inhibition Assay; hydrolysis of Suc-Ala-Ala-Pro-Phe-pNA with versus without inhibitor): < 5%
